According to the supplement of paper PMC11316812:
± gives the standard deviation of the averaged measurements.

Columns and labels:
[1] = tested on: MCF7; experiment: percentage of EdU-negative (G0-arrested) nuclei per well, 72 h; higher = more G0 arrest; conditions: reference: sequence is the full UniProt precursor, the tested protein was the secreted form or ectodomain
[2] = tested on: hTERT-HMEC; experiment: as above; conditions: reference: sequence is the full UniProt precursor, the tested protein was the secreted form or ectodomain
[3] = protein concentration 0.0070625 µM
[4] = protein concentration 0.070625 µM
[5] = protein concentration 0.01725 µM
[6] = protein concentration 0.1725 µM
[7] = protein concentration 0.00975 µM
[8] = protein concentration 0.0975 µM
[9] = protein concentration 0.0240725 µM
[10] = protein concentration 0.240725 µM
[11] = protein concentration 0.00742857 µM
[12] = protein concentration 0.0742857 µM
[13] = protein concentration 0.0225 µM
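Note: secreted proteins added to cultured cells, EdU pulse at the end, nuclei found by Hoechst imaging, EdU status from nuclear versus surrounding ring intensity ratio, PBS as neutral control.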

MGAARLLPNLTLCLQLLILCCQTQGENHPSPNFNQYVRDQGAMTDQLSRRQIREYQLYSRTSGKHVQVTGRRISATAEDGNKFAKLIVETDTFGSRVRIKGAESEKYICMNKRGKLIGKPSGKSKDCVFTEIVLENNYTAFQNARHEGWFMAFTRQGRPRQASRSRQNQREAHFIKRLYQGQLPFPNHAEKQKQFEFVGSAPTRRTKRTRRPQPLT
percentage of EdU-negative [1, 3]: 26.1 ± 0.65%
percentage of EdU-negative [1, 4]: 25.6 ± 3.5%
percentage of EdU-negative [2, 3]: 4.842 ± 0.02%
percentage of EdU-negative [2, 4]: 5.5 ± 0.25%

MGAASGRRGPGLLLPLPLLLLLPPQPALALDPGLQPGNFSADEAGAQLFAQSYNSSAEQVLFQSVAASWAHDTNITAENARRQEEAALLSQEFAEAWGQKAKELYEPIWQNFTDPQLRRIIGAVRTLGSANLPLAKRQQYNALLSNMSRIYSTAKVCLPNKTATCWSLDPDLTNILASSRSYAMLLFAWEGWHNAAGIPLKPLYEDFTALSNEAYKQDGFTDTGAYWRSWYNSPTFEDDLEHLYQQLEPLYLNLHAFVRRALHRRYGDRYINLRGPIPAHLLGDMWAQSWENIYDMVVPFPDKPNLDVTSTMLQQGWNATHMFRVAEEFFTSLELSPMPPEFWEGSMLEKPADGREVVCHASAWDFYNRKDFRIKQCTRVTMDQLSTVHHEMGHIQYYLQYKDLPVSLRRGANPGFHEAIGDVLALSVSTPEHLHKIGLLDRVTNDTESDINYLLKMALEKIAFLPFGYLVDQWRWGVFSGRTPPSRYNFDWWYLRTKYQGICPPVTRNETHFDAGAKFHVPNVTPYIRYFVSFVLQFQFHEALCKEAGYEGPLHQCDIYRSTKAGAKLRKVLQAGSSRPWQEVLKDMVGLDALDAQPLLKYFQPVTQWLQEQNQQNGEVLGWPEYQWHPPLPDNYPEGIDLVTDEAEASKFVEEYDRTSQVVWNEYAEANWNYNTNITTETSKILLQKNMQIANHTLKYGTQARKFDVNQLQNTTIKRIIKKVQDLERAALPAQELEEYNKILLDMETTYSVATVCHPNGSCLQLEPDLTNVMATSRKYEDLLWAWEGWRDKAGRAILQFYPKYVELINQAARLNGYVDAGDSWRSMYETPSLEQDLERLFQELQPLYLNLHAYVRRALHRHYGAQHINLEGPIPAHLLGNMWAQTWSNIYDLVVPFPSAPSMDTTEAMLKQGWTPRRMFKEADDFFTSLGLLPVPPEFWNKSMLEKPTDGREVVCHASAWDFYNGKDFRIKQCTTVNLEDLVVAHHEMGHIQYFMQYKDLPVALREGANPGFHEAIGDVLALSVSTPKHLHSLNLLSSEGGSDEHDINFLMKMALDKIAFIPFSYLVDQWRWRVFDGSITKENYNQEWWSLRLKYQGLCPPVPRTQGDFDPGAKFHIPSSVPYIRYFVSFIIQFQFHEALCQAAGHTGPLHKCDIYQSKEAGQRLATAMKLGFSRPWPEAMQLITGQPNMSASAMLSYFKPLLDWLRTENELHGEKLGWPQYNWTPNSARSEGPLPDSGRVSFLGLDLDAQQARVGQWLLLFLGIALLVATLGLSQRLFSIRHRSLHRHSHGPQFGSEVELRHS
percentage of EdU-negative [1, 5]: 27.2 ± 0.68%
percentage of EdU-negative [1, 6]: 28.2 ± 4.2%
percentage of EdU-negative [2, 5]: 4.7 ± 0.63%
percentage of EdU-negative [2, 6]: 5.68 ± 0.65%

MGADGETVVLKNMLIGINLILLGSMIKPSECQLEVTTERVQRQSVEEEGGIANYNTSSKEQPVVFNHVYNINVPLDNLCSSGLEASAEQEVSAEDETLAEYMGQTSDHESQVTFTHRINFPKKACPCASSAQVLQELLSRIEMLEREVSVLRDQCNANCCQESAATGQLDYIPHCSGHGNFSFESCGCICNEGWFGKNCSEPYCPLGCSSRGVCVDGQCICDSEYSGDDCSELRCPTDCSSRGLCVDGECVCEEPYTGEDCRELRCPGDCSGKGRCANGTCLCEEGYVGEDCGQRQCLNACSGRGQCEEGLCVCEEGYQGPDCSAVAPPEDLRVAGISDRSIELEWDGPMAVTEYVISYQPTALGGLQLQQRVPGDWSGVTITELEPGLTYNISVYAVISNILSLPITAKVATHLSTPQGLQFKTITETTVEVQWEPFSFSFDGWEISFIPKNNEGGVIAQVPSDVTSFNQTGLKPGEEYIVNVVALKEQARSPPTSASVSTVIDGPTQILVRDVSDTVAFVEWIPPRAKVDFILLKYGLVGGEGGRTTFRLQPPLSQYSVQALRPGSRYEVSVSAVRGTNESDSATTQFTTEIDAPKNLRVGSRTATSLDLEWDNSEAEVQEYKVVYSTLAGEQYHEVLVPRGIGPTTRATLTDLVPGTEYGVGISAVMNSQQSVPATMNARTELDSPRDLMVTASSETSISLIWTKASGPIDHYRITFTPSSGIASEVTVPKDRTSYTLTDLEPGAEYIISVTAERGRQQSLESTVDAFTGFRPISHLHFSHVTSSSVNITWSDPSPPADRLILNYSPRDEEEEMMEVSLDATKRHAVLMGLQPATEYIVNLVAVHGTVTSEPIVGSITTGIDPPKDITISNVTKDSVMVSWSPPVASFDYYRVSYRPTQVGRLDSSVVPNTVTEFTITRLNPATEYEISLNSVRGREESERICTLVHTAMDNPVDLIATNITPTEALLQWKAPVGEVENYVIVLTHFAVAGETILVDGVSEEFRLVDLLPSTHYTATMYATNGPLTSGTISTNFSTLLDPPANLTASEVTRQSALISWQPPRAEIENYVLTYKSTDGSRKELIVDAEDTWIRLEGLLENTDYTVLLQAAQDTTWSSITSTAFTTGGRVFPHPQDCAQHLMNGDTLSGVYPIFLNGELSQKLQVYCDMTTDGGGWIVFQRRQNGQTDFFRKWADYRVGFGNVEDEFWLGLDNIHRITSQGRYELRVDMRDGQEAAFASYDRFSVEDSRNLYKLRIGSYNGTAGDSLSYHQGRPFSTEDRDNDVAVTNCAMSYKGAWWYKNCHRTNLNGKYGESRHSQGINWYHWKGHEFSIPFVEMKMRPYNHRLMAGRKRQSLQF
percentage of EdU-negative [1, 7]: 26.36 ± 0.12%
percentage of EdU-negative [1, 8]: 26.4 ± 0.85%
percentage of EdU-negative [2, 7]: 5.09 ± 0.52%
percentage of EdU-negative [2, 8]: 6.03 ± 1.7%

MGAGATGRAMDGPRLLLLLLLGVSLGGAKEACPTGLYTHSGECCKACNLGEGVAQPCGANQTVCEPCLDSVTFSDVVSATEPCKPCTECVGLQSMSAPCVEADDAVCRCAYGYYQDETTGRCEACRVCEAGSGLVFSCQDKQNTVCEECPDGTYSDEANHVDPCLPCTVCEDTERQLRECTRWADAECEEIPGRWITRSTPPEGSDSTAPSTQEPEAPPEQDLIASTVAGVVTTVMGSSQPVVTRGTTDNLIPVYCSILAAVVVGLVAYIAFKRWNSCKQNKQGANSRPVNQTPPPEGEKLHSDSGISVDSQSLHDQQPHTQTASGQALKGDGGLYSSLPPAKREEVEKLLNGSAGDTWRHLAGELGYQPEHIDSFTHEACPVRALLASWATQDSATLDALLAALRRIQRADLVESLCSESTATSPV
percentage of EdU-negative [1, 9]: 24.6 ± 0.37%
percentage of EdU-negative [1, 10]: 23 ± 1.5%
percentage of EdU-negative [2, 9]: 4.77 ± 0.43%
percentage of EdU-negative [2, 10]: 4.6 ± 0.64%

MGALARALPSILLALLLTSTPEALGANPGLVARITDKGLQYAAQEGLLALQSELLRITLPDFTGDLRIPHVGRGRYEFHSLNIHSCELLHSALRPVPGQGLSLSISDSSIRVQGRWKVRKSFFKLQGSFDVSVKGISISVNLLLGSESSGRPTVTASSCSSDIADVEVDMSGDLGWLLNLFHNQIESKFQKVLESRICEMIQKSVSSDLQPYLQTLPVTTEIDSFADIDYSLVEAPRATAQMLEVMFKGEIFHRNHRSPVTLLAAVMSLPEEHNKMVYFAISDYVFNTASLVYHEEGYLNFSITDDMIPPDSNIRLTTKSFRPFVPRLARLYPNMNLELQGSVPSAPLLNFSPGNLSVDPYMEIDAFVLLPSSSKEPVFRLSVATNVSATLTFNTSKITGFLKPGKVKVELKESKVGLFNAELLEALLNYYILNTFYPKFNDKLAEGFPLPLLKRVQLYDLGLQIHKDFLFLGANVQYMRV
percentage of EdU-negative [1, 11]: 23.1 ± 3.5%
percentage of EdU-negative [1, 12]: 26.4 ± 0.82%
percentage of EdU-negative [2, 11]: 5.11 ± 0.45%
percentage of EdU-negative [2, 12]: 7.684 ± 0.069%

MGALRPTLLPPSLPLLLLLMLGMGCWAREVLVPEGPLYRVAGTAVSISCNVTGYEGPAQQNFEWFLYRPEAPDTALGIVSTKDTQFSYAVFKSRVVAGEVQVQRLQGDAVVLKIARLQAQDAGIYECHTPSTDTRYLGSYSGKVELRVLPDVLQVSAAPPGPRGRQAPTSPPRMTVHEGQELALGCLARTSTQKHTHLAVSFGRSVPEAPVGRSTLQEVVGIRSDLAVEAGAPYAERLAAGELRLGKEGTDRYRMVVGGAQAGDAGTYHCTAAEWIQDPDGSWAQIAEKRAVLAHVDVQTLSSQLAVTVGPGERRIGPGEPLELLCNVSGALPPAGRHAAYSVGWEMAPAGAPGPGRLVAQLDTEGVGSLGPGYEGRHIAMEKVASRTYRLRLEAARPGDAGTYRCLAKAYVRGSGTRLREAASARSRPLPVHVREEGVVLEAVAWLAGGTVYRGETASLLCNISVRGGPPGLRLAASWWVERPEDGELSSVPAQLVGGVGQDGVAELGVRPGGGPVSVELVGPRSHRLRLHSLGPEDEGVYHCAPSAWVQHADYSWYQAGSARSGPVTVYPYMHALDTLFVPLLVGTGVALVTGATVLGTITCCFMKRLRKR [Q969P0]
percentage of EdU-negative [1, 13]: 25 ± 1.3%
percentage of EdU-negative ([1]; protein concentration 0.225 µM): 26.5 ± 0.91%
percentage of EdU-negative [2, 13]: 5.09 ± 0.17%
percentage of EdU-negative ([2]; protein concentration 0.225 µM): 5.05 ± 0.19%
